Publication PMC9297724, “SARS-CoV-2 Epitopes following Infection and Vaccination Overlap Known Neutralizing Antibody Sites” (Research, 2022)
Where no end group is shown, it is not given here.

Biological target: T1, ACE2-Fc (human, UniProt Q9BYF1)
T1 construct: also called recombinant human ACE2; angiotensin converting enzyme-2; source: bought: GenScript
Assay: ELISA; ACE2-Fc (4 ug/mL) captured on goat anti-human IgG Fc coated plates; biotin-labeled S481 peptide in two-fold dilutions 2000-3.90 ng/mL in 1% BSA/0.05% PBST, 1 hour at room temperature; detected with HRP-streptavidin and TMB, absorbance at 450 nm
Conditions: both partners purified

T1 sequence (Q9BYF1 18-740): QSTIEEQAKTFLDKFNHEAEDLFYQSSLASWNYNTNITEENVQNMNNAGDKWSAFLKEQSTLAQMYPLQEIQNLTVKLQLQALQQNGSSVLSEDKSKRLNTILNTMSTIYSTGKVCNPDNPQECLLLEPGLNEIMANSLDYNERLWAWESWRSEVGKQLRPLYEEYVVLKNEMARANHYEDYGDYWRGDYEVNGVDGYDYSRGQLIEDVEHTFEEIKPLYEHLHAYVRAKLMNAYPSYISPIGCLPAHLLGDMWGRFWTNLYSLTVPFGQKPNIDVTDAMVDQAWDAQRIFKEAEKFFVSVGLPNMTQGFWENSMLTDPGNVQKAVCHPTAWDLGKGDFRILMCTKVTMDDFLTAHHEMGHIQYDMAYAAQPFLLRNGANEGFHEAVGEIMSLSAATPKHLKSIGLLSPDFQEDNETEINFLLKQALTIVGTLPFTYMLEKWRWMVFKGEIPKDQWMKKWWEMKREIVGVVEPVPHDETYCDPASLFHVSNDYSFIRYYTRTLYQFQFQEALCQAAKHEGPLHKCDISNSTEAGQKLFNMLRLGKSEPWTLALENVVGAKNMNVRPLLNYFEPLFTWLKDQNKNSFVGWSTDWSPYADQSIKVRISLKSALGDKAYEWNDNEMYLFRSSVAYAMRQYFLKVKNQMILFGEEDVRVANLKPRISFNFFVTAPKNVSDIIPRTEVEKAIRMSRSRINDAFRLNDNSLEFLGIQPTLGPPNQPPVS

## NGVEGFNCYFPLQSY (also: biotin label, position not given here, also called S481 peptide) [S481-495 peptide]
  binding result: binds
